Measured values from paper PMC7721913 (The Journal of Cell Biology, 2020).

B1: KIF5B: kinesin heavy chain KIF5B (protein, UniProt P33176 2-963, looked up)
Kinesin-1 heavy chain: ADLAECNIKVMCRFRPLNESEVNRGDKYIAKFQGEDTVVIASKPYAFDRVFQSSTSQEQVYNDCAKKIVKDVLEGYNGTIFAYGQTSSGKTHTMEGKLHDPEGMGIIPRIVQDIFNYIYSMDENLEFHIKVSYFEIYLDKIRDLLDVSKTNLSVHEDKNRVPYVKGCTERFVCSPDEVMDTIDEGKSNRHVAVTNMNEHSSRSHSIFLINVKQENTQTEQKLSGKLYLVDLAGSEKVSKTGAEGAVLDEAKNINKSLSALGNVISALAEGSTYVPYRDSKMTRILQDSLGGNCRTTIVICCSPSSYNESETKSTLLFGQRAKTIKNTVCVNVELTAEQWKKKYEKEKEKNKILRNTIQWLENELNRWRNGETVPIDEQFDKEKANLEAFTVDKDITLTNDKPATAIGVIGNFTDAERRKCEEEIAKLYKQLDDKDEEINQQSQLVEKLKTQMLDQEELLASTRRDQDNMQAELNRLQAENDASKEEVKEVLQALEELAVNYDQKSQEVEDKTKEYELLSDELNQKSATLASIDAELQKLKEMTNHQKKRAAEMMASLLKDLAEIGIAVGNNDVKQPEGTGMIDEEFTVARLYISKMKSEVKTMVKRCKQLESTQTESNKKMEENEKELAACQLRISQHEAKIKSLTEYLQNVEQKKRQLEESVDALSEELVQLRAQEKVHEMEKEHLNKVQTANEVKQAVEQQIQSHRETHQKQISSLRDEVEAKAKLITDLQDQNQKMMLEQERLRVEHEKLKATDQEKSRKLHELTVMQDRREQARQDLKGLEETVAKELQTLHNLRKLFVQDLATRVKKSAEIDSDDTGGSAAQKQKISFLENNLEQLTKVHKQLVRDNADLRCELPKLEKRLRATAERVKALESALKEAKENASRDRKRYQQEVDRIKEAVRSKNMARRGHSAQIAKPIRPGQHPAASPTHPSAIRGGGAFVQNSQPVAVRGGGGKQV
B2: KIF5A^R280H: KIF5A mutant associated with CMT2 (protein)
chain: MAETNNECSIKVLCRFRPLNQAEILRGDKFIPIFQGDDSVIIGGKPYVFDRVFPPNTTQEQVYHACAMQIVKDVLAGYNGTIFAYGQTSSGKTHTMEGKLHDPQLMGIIPRIARDIFNHIYSMDENLEFHIKVSYFEIYLDKIRDLLDVTKTNLSVHEDKNRVPFVKGCTERFVSSPEEILDVIDEGKSNRHVAVTNMNEHSSRSHSIFLINIKQENVETEQKLSGKLYLVDLAGSEKVSKTGAEGAVLDEAKNINKSLSALGNVISALAEGTKSYVPYHDSKMTRILQDSLGGNCRTTMFICCSPSSYNDAETKSTLMFGQRAKTIKNTASVNLELTAEQWKKKYEKEKEKTKAQKETIAKLEAELSRWRNGENVPETERLAGEDSALGAELCEETPVNDNSSIVVRIAPEERQKYEEEIRRLYKQLDDKDDEINQQSQLIEKLKQQMLDQEELLVSTRGDNEKVQRELSHLQSENDAAKDEVKEVLQALEELAVNYDQKSQEVEEKSQQNQLLVDELSQKVATMLSLESELQRLQEVSGHQRKRIAEVLNGLMRDLSEFSVIVGNGEIKLPVEISGAIEEEFTVARLYISKIKSEVKSVVKRCRQLENLQVECHRKMEVTGRELSSCQLLISQHEAKIRSLTEYMQTVELKKRHLEESYDSLSDELARLQAHETVHEVALKDKEPDTQDAEEVKKALELQMENHREAHHRQLARLRDEINEKQKTIDELKDLNQKLQLELEKLQADYERLKNEENEKSAKLQELTFLYERHEQSKQDLKGLEETVARELQTLHNLRKLFVQDVTTRVKKSAEMEPEDSGGIHSQKQKISFLENNLEQLTKVHKQLVRDNADLRCELPKLEKRLRATAERVKALEGALKEAKEGAMKDKRRYQQEVDRIKEAVRYKSSGKRGHSAQIAKPVRPGHYPASSPTNPYGTRSPECISYTNNLFQNYQNLHLQAAPSSTSDMYFASSGATSVAPLASYQKANMDNGNATDINDNRSDLPCGYEAEDQAKLFPLHQETAAS
modifications: left off: FLAG, N-terminal, kept

Columns and labels:
[1] = test system: CB and distal axon compartments of DRG neurons; assay: Western blot of KIF5 and KLC in cell body and distal axon lysates; assay type: cell-based, rat; conditions: Campenot CB vs distal axon lysates
[2] = test system: DRG neurons; DRGs and sciatic nerve of P1 mice; assay: Immunostaining of KIF5s in DRG neurons, DRGs and sciatic nerve; set-up: species or system rat; mouse; conditions: microfluidic DRG neurons, DRGs and sciatic nerves in vivo
HA-SFPQ = assay: Coimmunoprecipitation of HA-SFPQ with KLC1/KIF5A constructs in HEK 293T cells; conditions: KIF5A^R280H vs WT KIF5A, n = 7, P = 0.0019
[3] = test system: bclw and β actin mRNA in DRG neurons; assay: Quantitative RT-PCR of mRNA in cell bodies and distal axons; assay type: cell-based, rat; conditions: vs WT control; normalized to gapdh; 3 independent experiments
[4] = test system: mitochondria in axons of DRG neurons; assay: Mitochondrial transport assay; assay type: cell-based, rat; conditions: vs control; ∼115 mitochondria, 10 axons, three experiments

Molecule | compartment localization (in words) [1] | axonal localization of KIF5B by immunostaining (in words) [2] | reduction in binding to SFPQ (HA-SFPQ) [%] | axonal bclw mRNA level (in words) [3] | axonal β actin mRNA level (in words) [3] | mitochondria transport (in words) [4]
B1 | preferentially localizes in the CB compartment | largely excluded from axons |  |  |  | 
B2 |  |  | ~50 | significantly decreased | not affected | did not alter mitochondria transport
